Values quoted from earlier work as cited in PMC5176006.

Target: IscU (Escherichia coli) (UniProt P0ACD4)
UniProt P0ACD4, sequence (P0ACD4 whole entry): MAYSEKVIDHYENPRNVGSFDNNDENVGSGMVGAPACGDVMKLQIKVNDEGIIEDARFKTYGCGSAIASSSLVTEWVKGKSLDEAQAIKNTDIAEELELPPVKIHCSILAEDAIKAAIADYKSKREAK

Substance: IscS (from UniProt P0A6B7)
- Kd: 1000 nM
